Experimental data: patent US20250235545A1, “POLYPEPTIDE CONJUGATE AND USE THEREOF” (SHANGHAI CHIXI BIOMEDICAL TECHNOLOGY CO., LTD, priority 2024, published 2025)
Values after ≈ are worked out from the molar mass of the structure shown. Read-outs that look alike come from different tables or passages of the source. Where a SMILES comes first, the peptide text is derived from it. The star is where a group is joined. Belotecan = CC[C@@]1(O)C(=O)OCc2c1cc1n(c2=O)Cc2c-1nc1ccccc1c2CCN(C(C)C)*; X7 = CC[C@@]1(O)C(=O)OCc2c1cc1n(c2=O)Cc2c-1nc1ccccc1c2CCN(C)*; Propanoyl(3-maleimido) = O=C1C=CC(=O)N1CCC(=O)*; PEG6 = NCCOCCOCCOCCOCCOCCOCCC(=O)O

Tests used:
[1] = Homogenate activation efficiency, heart tissue (Examples 28, 37); format: in vitro ADME; settings: pH 5.0, 37° C., 2 h; Table 10
[2] = test system: sarcoma SJSA-1 tumor model; settings: Table 7
Method in brief: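 SJSA-1 cells (2×10^7, DMEM/10% FBS, under 15 passages) implanted subcutaneously in right chest of female BALB/c nude mice, 6-8 weeks old. At ≥100 mm^3, randomized three per group; dosing once weekly for three weeks, saline as control, day 1 = first treatment.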

[3] = Tumor homogenate activation efficiency, non-small cell lung cancer tissue (Examples 28, 37); format: in vitro ADME; settings: pH 5.0, 37° C., 2 h; Table 10
Method in brief: (§1)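 1 mg/ml conjugate, pH 5.0 (50 mM MES, 250 mM NaCl); + 100 μg tissue homogenate; 37° C, 2 h. HPLC, release = Belotecan area / total Belotecan-containing area.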

A2780 (ovarian cancer) = assay: cells; format: cell-based; settings: CCK8, 48 h; Table 6
Method in brief: (§2)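 5,000 cells/well; compound dilution series, triplicates; vehicle 0.1% DMSO; medium RPMI1640 or DMEM high glucose + 10% FBS + 1 mM pyruvate. 48 h, 37° C, 5% CO2. CCK8 ~2 h, OD450. IC50 calculated.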

[4] = test system: SKBR3 (breast cancer tissue); assay: cells; format: cell-based; settings: CCK8, 48 h; Table 6
Method in brief: as §2

SJSA-1 (sarcoma tissue) = assay: cells; format: cell-based; settings: CCK8, 48 h; Table 6
Method in brief: as §2

[5] = test system: A549 (non-small cell lung cancer); assay: cells; format: cell-based; settings: CCK8, 48 h; Table 6
Method in brief: as §2

[6] = test system: colo320 (colorectal cancer tissue); assay: cells; format: cell-based; settings: CCK8, 48 h; Table 6
Method in brief: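 Colo320 cells, 5,000 per well, exposed to drug concentration series for 48 h at 37 °C, 5% CO2 (0.1% DMSO controls). Viability by CCK8, absorbance at 450 nm after about 2 h. Survival rates and IC50 calculated.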

[7] = Tumor homogenate activation efficiency, colorectal cancer tissue (Example 37); format: in vitro ADME; settings: pH 5.0, 37° C., 2 h; Table 10
Method: Buffer preparation: 50 mM PH buffer (MES), 250 mM NaCl, pH adjusted to 5.0 with 0.5 M of sodium hydroxide.
The polypeptide conjugate was prepared into a 1 mg/ml solution with pH 5.0 buffer, 100 μg of tumor tissue homogenate was added, (the tumor tissue homogenate was the homogenate of tumor tissues prepared with a Jingxin F6/10 handheld homogenizer), and the solution was placed at 37° C. for 2 h. The tumor tissue homogenate could effectively activate the polypeptide conjugate and release Belotecan, and the activation efficiencies of the drugs in tumor tissues were compared by HPLC allowing determination of a decrease in the compounds and an increase in Belotecan:
Release percentage=peak area of Belotecan/total peak area of Belotecan and all other Belotecan-containing compounds

[8] = Tumor homogenate activation efficiency, ovarian cancer tissue (Examples 28, 37); format: in vitro ADME; settings: pH 5.0, 37° C., 2 h; Table 10
Method in brief: as §1

[9] = MTD determination in mice (Examples 27, 36, 44); format: in vivo; settings: female, mouse, in vivo; mice, monitored for 14 d; Table 9
Description: Test animals: 6-8 weeks old mice, all female; mice were grouped randomly, with six mice in each group, administered with drugs at different concentration gradients separately and monitored for 14 d. A mouse was euthanized at a loss of 20% of its initial weight and deemed to have died of poisoning.

[10] = test system: colo320 colorectal cancer tumor model
Method in brief: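 Female BALB/c nude mice, 6–8 weeks old, received 7.5×10^6 colo320 cells subcutaneously in the right chest. Once tumors reached at least 120 mm^3 they were randomized three per group. Treatment with test agents or saline control was given once weekly for four weeks.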

[11] = Tumor homogenate activation efficiency, sarcoma tissue (Examples 28, 37); format: in vitro ADME; settings: pH 5.0, 37° C., 2 h; Table 10
Method in brief: as §1

[12] = Tumor homogenate activation efficiency, breast cancer tissue (Examples 28, 37); format: in vitro ADME; settings: pH 5.0, 37° C., 2 h; Table 10
Method in brief: as §1

[13] = test system: sarcoma SJSA-1 tumor model; assay: Efficacy in animal model of sarcoma SJSA-1, 30 mg/kg once a week for two weeks (Example 40); format: in vivo, BALB/c mice; settings: 30 mg/kg once a week for two weeks; Day 14
Method: Test objective: To further compare the antitumor efficacy of different polypeptide Linkers in an animal tumor model of sarcoma SJSA-1.
Test drug: Polypeptide conjugate and normal saline control group.
The control group was administered normal saline. Administration was performed once a week for two weeks.

[14] = 45 mg/kg once a week for three weeks
[15] = 45 mg/kg once a week for four weeks, Table 8
[16] = Table 14 (Example 43), dose 45 mg/kg, once a week for four weeks, BALB/c mice

| Compound | Percentage of release efficiency (%) Heart tissue [1] | Mouse weight (%) [2, 14] | Percentage of release efficiency (%) Non-small cell lung cancer tissue (A549) [3] | IC50 Ovarian cancer tissue (A2780) (A2780 (ovarian cancer)) | IC50 Breast cancer tissue (SKBR3) [4] | IC50 Sarcoma tissue (SJSA-1) (SJSA-1 (sarcoma tissue)) | IC50 Non-small cell lung cancer tissue (A549) [5] | IC50 Colorectal cancer tissue (colo320) [6] | Percentage of release efficiency (%) Colorectal cancer tissue (colo320) [7] | Percentage of release efficiency (%) Ovarian cancer tissue (A2780) [8] | MTD at 14 d [9] | Mouse weight (%) [10, 15] | Mouse weight (%) [10, 16] | Percentage of release efficiency (%) Sarcoma tissue (SJSA1) [11] | Percentage of release efficiency (%) Breast cancer tissue (SKBR3) [12] | Mouse weight (%) on Day 14 [13] | Mouse weight (%) ([2]; 15 mg/kg once a week for three weeks) | Mouse weight (%) ([10]; 15 mg/kg once a week for four weeks, Table 8) |
| --- | --- | --- | --- | --- | --- | --- | --- | --- | --- | --- | --- | --- | --- | --- | --- | --- | --- | --- |
| CC[C@@]1(O)C(=O)OCc2c1cc1n(c2=O)Cc2c-1nc1ccccc1c2CCN(C)C(=O)[C@H](CC(C)C)NC(=O)[C@H](CC(N)=O)NC(=O)[C@H](C)NC(=O)[C@H](C)NC(=O)CCOCCOCCOCCOCCOCCOCCNC(=O)CCN1C(=O)C=CC1=O [MI-6PEG-AANL-D1] ({Propanoyl(3-maleimido)-PEG6}-AANL-X7) | 3% | +29% | 69.5% | 2.09 µg/mL (≈ 1.66 µM) | 3.25 µg/mL (≈ 2.58 µM) | 2.33 µg/mL (≈ 1.85 µM) | 3.05 µg/mL (≈ 2.42 µM) | 3.82 µg/mL (≈ 3.03 µM) | 72.4% | 66.4% | 200 mg/kg | +16% | +16% | 81.2% | 80% | – | – | – |
| CC[C@@]1(O)C(=O)OCc2c1cc1n(c2=O)Cc2c-1nc1ccccc1c2CCN(C(=O)[C@H](CC(C)C)NC(=O)[C@H](CC(N)=O)NC(=O)[C@H](C)NC(=O)[C@H](C)NC(=O)CCOCCOCCOCCOCCOCCOCCNC(=O)CCN1C(=O)C=CC1=O)C(C)C [MI-6PEG-AANL-Belotecan] ({Propanoyl(3-maleimido)-PEG6}-AANL-Belotecan) | 2.5% | +21% | 76.5% | 0.91 µg/mL (≈ 0.706 µM) | 2.48 µg/mL (≈ 1.92 µM) | 0.90 µg/mL (≈ 0.698 µM) | 1.55 µg/mL (≈ 1.2 µM) | 2.74 µg/mL (≈ 2.12 µM) | 75.6% | 81.2% | 150 mg/kg | +2% | +2% | 75.5% | 69.5% | −1.3% | +24% | +22% |
